# Tests used:
# Test in all cases: cell-based or functional assay
# [1] = biological target: CH0505.w4.3 Env, Env-pseudotyped virus produced in 293T cells (HIV-1)
# [2] = biological target: CH0505TF Env, Env-pseudotyped virus produced in 293S GnTI- cells (Man5-enriched) (HIV-1)
# [3] = biological target: CH0505TF Env, Env-pseudotyped virus produced in 293T cells (HIV-1)
# [4] = biological target: CH0505TF.G458Y Env, Env-pseudotyped virus produced in 293S GnTI- cells (Man5-enriched) (HIV-1)
# [5] = biological target: CH0505TF.G458Y Env, Env-pseudotyped virus produced in 293T cells (HIV-1)
# [6] = biological target: CH0505TF.gly3.197 Env, Env-pseudotyped virus produced in 293S GnTI- cells (Man5-enriched) (HIV-1)
# [7] = biological target: CH0505TF.gly3.197 Env, Env-pseudotyped virus produced in 293T cells (HIV-1)
# [8] = biological target: CH0505TF.gly3.276 Env, Env-pseudotyped virus produced in 293S GnTI- cells (Man5-enriched) (HIV-1)
# [9] = biological target: CH0505TF.gly3.276 Env, Env-pseudotyped virus produced in 293T cells (HIV-1)
# [10] = biological target: CH0505TF.gly3.461 Env, Env-pseudotyped virus produced in 293S GnTI- cells (Man5-enriched) (HIV-1)
# [11] = biological target: CH0505TF.gly3.461 Env, Env-pseudotyped virus produced in 293T cells (HIV-1)
# [12] = biological target: CH0505TF.gly4 Env, Env-pseudotyped virus produced in 293S GnTI- cells (Man5-enriched) (HIV-1)
# [13] = biological target: CH0505TF.gly4 Env, Env-pseudotyped virus produced in 293T cells (HIV-1)
# [14] = biological target: HIV-1 426c.DM (N460D/N463D) Env on Env-pseudotyped virus produced in 293T cells (HIV-1)
# [15] = biological target: HIV-1 426c.DM (N460D/N463D) Env on Env-pseudotyped virus produced in 293s/GnTI-/- cells (Man5-enrichment) (HIV-1)
# [16] = biological target: HIV-1 426c.SM (N276D) Env on Env-pseudotyped virus produced in 293T cells (HIV-1)
# [17] = biological target: HIV-1 426c.SM (N276D) Env on Env-pseudotyped virus produced in 293s/GnTI-/- cells (Man5-enrichment) (HIV-1)
# [18] = biological target: HIV-1 426c.TM (N276D/N460D/N463D) Env on Env-pseudotyped virus produced in 293T cells (HIV-1)
# [19] = biological target: HIV-1 426c.TM (N276D/N460D/N463D) Env on Env-pseudotyped virus produced in 293s/GnTI-/- cells (Man5-enrichment) (HIV-1)
# [20] = biological target: HIV-1 Env 426c, Env-pseudotyped virus produced in 293S GnTI- cells (Man5-enriched) (HIV-1 clade C strain 426c)
# [21] = biological target: HIV-1 Env 426c, Env-pseudotyped virus produced in 293T cells (HIV-1 clade C strain 426c)
# [22] = biological target: HIV-1 Env 426c.DM (N460D.N463D), Env-pseudotyped virus produced in 293S GnTI- cells (Man5-enriched) (HIV-1 clade C strain 426c)
# [23] = biological target: HIV-1 Env 426c.DM (N460D.N463D), Env-pseudotyped virus produced in 293T cells (HIV-1 clade C strain 426c)
# [24] = biological target: HIV-1 Env 426c.SM (N276D), Env-pseudotyped virus produced in 293S GnTI- cells (Man5-enriched) (HIV-1 clade C strain 426c)
# [25] = biological target: HIV-1 Env 426c.SM (N276D), Env-pseudotyped virus produced in 293T cells (HIV-1 clade C strain 426c)
# [26] = biological target: HIV-1 Env 426c.TM (N276D.N460D.N463D), Env-pseudotyped virus produced in 293S GnTI- cells (Man5-enriched) (HIV-1 clade C strain 426c)
# [27] = biological target: HIV-1 Env 426c.TM (N276D.N460D.N463D), Env-pseudotyped virus produced in 293T cells (HIV-1 clade C strain 426c)
# [28] = biological target: HIV-1 Env 426c.TM4 (S278R.G471S.N460D.N463D), Env-pseudotyped virus produced in 293S GnTI- cells (Man5-enriched) (HIV-1 clade C strain 426c)
# [29] = biological target: HIV-1 Env 426c.TM4 (S278R.G471S.N460D.N463D), Env-pseudotyped virus produced in 293T cells (HIV-1 clade C strain 426c)
# [30] = biological target: HIV-1 clade C strain 426c Env on Env-pseudotyped virus produced in 293T cells (HIV-1)
# [31] = biological target: HIV-1 clade C strain 426c Env on Env-pseudotyped virus produced in 293s/GnTI-/- cells (Man5-enrichment) (HIV-1)
Substance,IC50 (µg/ml) in TZM-bl [1],IC50 (µg/ml) in TZM-bl [2],IC50 (µg/ml) in TZM-bl [3],IC50 (µg/ml) in TZM-bl [4],IC50 (µg/ml) in TZM-bl [5],IC50 (µg/ml) in TZM-bl [6],IC50 (µg/ml) in TZM-bl [7],IC50 (µg/ml) in TZM-bl [8],IC50 (µg/ml) in TZM-bl [9],IC50 (µg/ml) in TZM-bl [10],IC50 (µg/ml) in TZM-bl [11],IC50 (µg/ml) in TZM-bl [12],IC50 (µg/ml) in TZM-bl [13],ID50/IC50 in TZM-bl [14],ID50/IC50 in TZM-bl [15],ID50/IC50 in TZM-bl [16],ID50/IC50 in TZM-bl [17],ID50/IC50 in TZM-bl [18],ID50/IC50 in TZM-bl [19],IC50 (µg/ml) in TZM-bl [20],further results
4E10 (antibody),> 50 µg/mL,10 µg/mL,22 µg/mL,10 µg/mL,8 µg/mL,14 µg/mL,21 µg/mL,13 µg/mL,17 µg/mL,12 µg/mL,16 µg/mL,12.3 µg/mL,14 µg/mL,1 µg/mL,3.7 µg/mL,1.52 µg/mL,3.8 µg/mL,0.98 µg/mL,4 µg/mL,4 µg/mL,IC50 (µg/ml) in TZM-bl [21]: 3.32 µg/mL; IC50 (µg/ml) in TZM-bl [22]: 3.7 µg/mL; IC50 (µg/ml) in TZM-bl [23]: 1 µg/mL; IC50 (µg/ml) in TZM-bl [24]: 3.8 µg/mL; IC50 (µg/ml) in TZM-bl [25]: 1.52 µg/mL; IC50 (µg/ml) in TZM-bl [26]: 4 µg/mL; IC50 (µg/ml) in TZM-bl [27]: 0.98 µg/mL; IC50 (µg/ml) in TZM-bl [28]: 1.6 µg/mL; IC50 (µg/ml) in TZM-bl [29]: 1.66 µg/mL; ID50/IC50 in TZM-bl [30]: 3.32 µg/mL; ID50/IC50 in TZM-bl [31]: 4 µg/mL
10-1074 (antibody),> 25 µg/mL,> 25 µg/mL,> 25 µg/mL,> 25 µg/mL,> 25 µg/mL,> 25 µg/mL,> 25 µg/mL,> 25 µg/mL,> 25 µg/mL,> 25 µg/mL,> 25 µg/mL,> 25 µg/mL,> 25 µg/mL,0.1 µg/mL,0.03 µg/mL,0.12 µg/mL,0.04 µg/mL,0.16 µg/mL,0.03 µg/mL,0.03 µg/mL,IC50 (µg/ml) in TZM-bl [21]: 0.05 µg/mL; IC50 (µg/ml) in TZM-bl [22]: 0.03 µg/mL; IC50 (µg/ml) in TZM-bl [23]: 0.1 µg/mL; IC50 (µg/ml) in TZM-bl [24]: 0.04 µg/mL; IC50 (µg/ml) in TZM-bl [25]: 0.12 µg/mL; IC50 (µg/ml) in TZM-bl [26]: 0.03 µg/mL; IC50 (µg/ml) in TZM-bl [27]: 0.16 µg/mL; IC50 (µg/ml) in TZM-bl [28]: 0.02 µg/mL; IC50 (µg/ml) in TZM-bl [29]: 0.06 µg/mL; ID50/IC50 in TZM-bl [30]: 0.05 µg/mL; ID50/IC50 in TZM-bl [31]: 0.03 µg/mL
2219 (antibody),> 25 µg/mL,> 25 µg/mL,> 25 µg/mL,> 25 µg/mL,> 25 µg/mL,> 25 µg/mL,> 25 µg/mL,> 25 µg/mL,> 25 µg/mL,> 25 µg/mL,> 25 µg/mL,> 25 µg/mL,> 25 µg/mL,> 25 µg/mL,> 25 µg/mL,> 25 µg/mL,> 25 µg/mL,> 25 µg/mL,> 25 µg/mL,> 25 µg/mL,IC50 (µg/ml) in TZM-bl [21]: > 25 µg/mL; IC50 (µg/ml) in TZM-bl [22]: > 25 µg/mL; IC50 (µg/ml) in TZM-bl [23]: > 25 µg/mL; IC50 (µg/ml) in TZM-bl [24]: > 25 µg/mL; IC50 (µg/ml) in TZM-bl [25]: > 25 µg/mL; IC50 (µg/ml) in TZM-bl [26]: > 25 µg/mL; IC50 (µg/ml) in TZM-bl [27]: > 25 µg/mL; IC50 (µg/ml) in TZM-bl [28]: > 25 µg/mL; IC50 (µg/ml) in TZM-bl [29]: > 25 µg/mL; ID50/IC50 in TZM-bl [30]: > 25 µg/mL; ID50/IC50 in TZM-bl [31]: > 25 µg/mL
2557 (antibody),> 25 µg/mL,> 25 µg/mL,> 25 µg/mL,> 25 µg/mL,> 25 µg/mL,> 25 µg/mL,> 25 µg/mL,> 25 µg/mL,> 25 µg/mL,> 25 µg/mL,> 25 µg/mL,> 25 µg/mL,> 25 µg/mL,> 25 µg/mL,> 25 µg/mL,> 25 µg/mL,> 25 µg/mL,> 25 µg/mL,> 25 µg/mL,> 25 µg/mL,IC50 (µg/ml) in TZM-bl [21]: > 25 µg/mL; IC50 (µg/ml) in TZM-bl [22]: > 25 µg/mL; IC50 (µg/ml) in TZM-bl [23]: > 25 µg/mL; IC50 (µg/ml) in TZM-bl [24]: > 25 µg/mL; IC50 (µg/ml) in TZM-bl [25]: > 25 µg/mL; IC50 (µg/ml) in TZM-bl [26]: > 25 µg/mL; IC50 (µg/ml) in TZM-bl [27]: > 25 µg/mL; IC50 (µg/ml) in TZM-bl [28]: > 25 µg/mL; IC50 (µg/ml) in TZM-bl [29]: > 25 µg/mL; ID50/IC50 in TZM-bl [30]: > 25 µg/mL; ID50/IC50 in TZM-bl [31]: > 25 µg/mL
3074 (antibody),0.02 µg/mL,> 25 µg/mL,> 25 µg/mL,> 25 µg/mL,9.4 µg/mL,> 25 µg/mL,> 25 µg/mL,4.8 µg/mL,14.1 µg/mL,10.2 µg/mL,7.3 µg/mL,5.6 µg/mL,7.2 µg/mL,> 25 µg/mL,> 25 µg/mL,> 25 µg/mL,23 µg/mL,> 25 µg/mL,> 25 µg/mL,> 25 µg/mL,IC50 (µg/ml) in TZM-bl [21]: > 25 µg/mL; IC50 (µg/ml) in TZM-bl [22]: > 25 µg/mL; IC50 (µg/ml) in TZM-bl [23]: > 25 µg/mL; IC50 (µg/ml) in TZM-bl [24]: 23 µg/mL; IC50 (µg/ml) in TZM-bl [25]: > 25 µg/mL; IC50 (µg/ml) in TZM-bl [26]: > 25 µg/mL; IC50 (µg/ml) in TZM-bl [27]: > 25 µg/mL; IC50 (µg/ml) in TZM-bl [28]: > 25 µg/mL; IC50 (µg/ml) in TZM-bl [29]: > 25 µg/mL; ID50/IC50 in TZM-bl [30]: > 25 µg/mL; ID50/IC50 in TZM-bl [31]: > 25 µg/mL
3869 (antibody),3.1 µg/mL,> 25 µg/mL,> 25 µg/mL,> 25 µg/mL,> 25 µg/mL,> 25 µg/mL,> 25 µg/mL,> 25 µg/mL,> 25 µg/mL,> 25 µg/mL,> 25 µg/mL,> 25 µg/mL,> 25 µg/mL,> 25 µg/mL,> 25 µg/mL,> 25 µg/mL,> 25 µg/mL,> 25 µg/mL,> 25 µg/mL,> 25 µg/mL,IC50 (µg/ml) in TZM-bl [21]: > 25 µg/mL; IC50 (µg/ml) in TZM-bl [22]: > 25 µg/mL; IC50 (µg/ml) in TZM-bl [23]: > 25 µg/mL; IC50 (µg/ml) in TZM-bl [24]: > 25 µg/mL; IC50 (µg/ml) in TZM-bl [25]: > 25 µg/mL; IC50 (µg/ml) in TZM-bl [26]: > 25 µg/mL; IC50 (µg/ml) in TZM-bl [27]: > 25 µg/mL; IC50 (µg/ml) in TZM-bl [28]: > 25 µg/mL; IC50 (µg/ml) in TZM-bl [29]: > 25 µg/mL; ID50/IC50 in TZM-bl [30]: > 25 µg/mL; ID50/IC50 in TZM-bl [31]: > 25 µg/mL
